Measurements published in publication PMC8135088.
Residue numbers refer to the chain shown, from its start. Names may count otherwise.

B1: PcPOX (pyranose 2-oxidase from Phanerochaete chrysosporium) (Phanerodontia chrysosporium) (protein)
chain: MFLDTTPFRADEPYDVFIAGSGPIGATFAKLCVDANLRVCMVEIGAADSFTSKPMKGDPNAPRSVQFGPGQVPIPGYHKKNEIEYQKDIDRFVNVIKGALSTCSIPTSNNHIATLDPSVVSNSLDKPFISLGKNPAQNPFVNLGAEAVTRGVGGMSTHWTCATPEFFAPADFNAPHRERPKLSTDAAEDARIWKDLYAQAKEIIGTSTTEFDHSIRHNLVLRKYNDIFQKENVIREFSPLPLACHRLTDPDYVEWHATDRILEELFTDPVKRGRFTLLTNHRCTKLVFKHYRPGEENEVDYALVEDLLPHMQNPGNPASVKKIYARSYVVACGAVATAQVLANSHIPPDDVVIPFPGGEKGSGGGERDATIPTPLMPMLGKYITEQPMTFCQVVLDSSLMEVVRNPPWPGLDWWKEKVARHVEAFPNDPIPIPFRDPEPQVTIKFTEEHPWHVQIHRDAFSYGAVAENMDTRVIVDYRFFGYTEPQEANELVFQQHYRDAYDMPQPTFKFTMSQDDRARARRMMDDMCNIALKIGGYLPGSEPQFMTPGLALHLAGTTRCGLDTQKTVGNTHCKVHNFNNLYVGGNGVIETGFAANPTLTSICYAIRASNDIIAKFGRHRG
B2: PcPOX (pyranose 2-oxidase from Phanerochaete chrysosporium) (Phanerodontia chrysosporium; A551L) (protein)
chain: B1 chain with A551L
B3: PcPOX (pyranose 2-oxidase from Phanerochaete chrysosporium) (Phanerodontia chrysosporium; A551N) (protein)
chain: B1 chain with A551N

What follows are proteins tested on OC[C@H]1OC[C@H](O)[C@@H](O)[C@@H]1O (assay: purified protein). Conditions: 50 mM sodium phosphate pH 7.0, electron acceptor O2.
Assay type: biochemical, Phanerodontia chrysosporium
B1 showed a Km of 18.9 ± 4.4 mM, a kcat of 82.5 ± 10.3 s⁻¹ and a kcat/Km of 4400 M⁻¹ s⁻¹.
Work on B2 yielded a Km of 26.9 ± 3.5 mM, a kcat of 0.00696 ± 0.00027 s⁻¹ and a kcat/Km of 0.26 M⁻¹ s⁻¹.
B3 showed a Km of 65.7 ± 4.5 mM, a kcat of 0.253 ± 0.006 s⁻¹ and a kcat/Km of 3.8 M⁻¹ s⁻¹.

What follows are proteins tested on OC[C@H]1OC(O)[C@H](O)[C@@H](O)[C@@H]1O (assay: purified protein). Conditions: 50 mM sodium phosphate pH 7.0, electron acceptor O2.
Assay type: biochemical, Phanerodontia chrysosporium
B1 showed a Km of 0.978 ± 0.156 mM, a kcat of 115 ± 2 s⁻¹ and a kcat/Km of 120000 M⁻¹ s⁻¹.
For B2, the Km was 3.44 ± 1.15 mM, the kcat was 0.00659 ± 0.00129 s⁻¹ and the kcat/Km was 1.9 M⁻¹ s⁻¹.
With B3 the Km was 12.1 ± 0.3 mM, the kcat was 0.496 ± 0.021 s⁻¹ and the kcat/Km was 41 M⁻¹ s⁻¹.
